The source of these data is patent US20250084176A1 (F STAR BETA, published 2025).

First the molecules themselves.
B1: mCD137-mFc-Avi (Fc fusion)
chain: VQNSCDNCQPGTFCRKYNPVCKSCPPSTFSSIGGQPNCNICRVCAGYFRFKKFCSSTHNAECECIEGFHCLGPQCTRCEKDCRPGQELTKQGCKTCSLGTFNDQNGTGVCRPWTNCSLDGRSVLKTGTTEKDVVCGPPVVSFSPSTTISVTPEGGPGGHSLQVL
modifications: one biotin on the Avi sequence of each monomer (BirA); unbiotinylated in the SPR of Example 5.6
notes: also called mouse CD137-mFc-Avi; dimeric mouse CD137; not shown: mouse IgG2a Fc domain (mIgG2a Fc)
B2: FS22-053-014/HelD1.3 (bispecific antibody, human IgG1, kappa)
heavy: QVQLQESGPGLVRPSQTLSLTCTVSGSTFSGYGVNWVRQPPGRGLEWIGMIWGDGNTDYNSALKSRVTMLVDTSKNQFSLRLSSVTAADTAVYYCARERDYRLDYWGQGSLVTVSSASTKGPSVFPLAPSSKSTSGGTAALGCLVKDYFPEPVTVSWNSGALTSGVHTFPAVLQSSGLYSLSSVVTVPSSSLGTQTYICNVNHKPSNTKVDKKVEPKSCDKTHTCPPCPAPELLGGPSVFLFPPKPKDTLMISRTPEVTCVVVDVSHEDPEVKFNWYVDGVEVHNAKTKPREEQYNSTYRVVSVLTVLHQDWLNGKEYKCKVSNKALPAPIEKTISKAKGQPREPQVYTLPPSRDELNPPYLFSNQVSLTCLVKGFYPSDIAVEWESNGQPENNYKTTPPVLDSDGSFFLYSKLTVYHWRWLDGNVFSCSVMHEALHNHYTQKSLSLSPG
light: DIQMTQSPASLSASVGETVTITCRASGNIHNYLAWYQQKQGKSPQLLVYNAKTLADGVPSRFSGSGSGTQYSLKINSLQPEDFGSYYCQHFWSTPRTFGGGTKLEIKRTVAAPSVFIFPPSDEQLKSGTASVVCLLNNFYPREAKVQWKVDNALQSGNSQESVTEQDSKDSTYSLSSTLTLSKADYEKHKVYACEVTHQGLSSPVTKSFNRGEC
notes: Mock mAb^2, IgG1 without LALA; also called FS22-053-14; FS22-053-014/HeID1.3

Experiment [1] concerns the target T1, mouse CD137 ligand on DO11.10 cells (mouse, UniProt P41274 1-309).
T1 construct: whole, on cells
T1 sequence (looked up): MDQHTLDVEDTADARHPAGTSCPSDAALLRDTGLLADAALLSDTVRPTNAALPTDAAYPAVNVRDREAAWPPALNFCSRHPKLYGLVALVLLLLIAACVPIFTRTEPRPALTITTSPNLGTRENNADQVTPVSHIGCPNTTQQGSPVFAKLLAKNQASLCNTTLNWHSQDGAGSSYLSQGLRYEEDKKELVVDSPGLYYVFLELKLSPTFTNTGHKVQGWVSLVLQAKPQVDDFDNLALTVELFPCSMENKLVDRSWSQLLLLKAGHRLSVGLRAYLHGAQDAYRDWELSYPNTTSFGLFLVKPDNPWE
The experiment is described as follows: flow cytometry, detection with anti mouse Fc fragment antibody. How it is done: In more detail, materials from the same production lot were mixed together and analysed for stability and purity by size-exclusion high-performance liquid chromatography (SE-HPLC), SDS polyacrylamide gel electrophoresis (SDS-PAGE), and size-exclusion chromatography with multi-angle light scattering (SEC-MALS). […] Cells were incubated with the CD137 antigens for 1 hour, and then a fluorescently-labelled anti mouse Fc fragment antibody was used to detect cell binding.
(In general: A flow cytometer gives signals particle by particle.)

Experiment [2] addresses T2, hCD137-mFc-Avi (human; mouse, UniProt Q07011 24-186, one biotin on the Avi sequence of each monomer (BirA); unbiotinylated in the SPR of Example 5.6).
T2 construct: Made in-house in HEK293-6E; also called human CD137-mFc-Avi; dimeric human CD137; not shown: mouse IgG2a Fc domain (mIgG2a Fc)
Description: SPR (Biacore), mAb2 captured by anti-human Fab, antigen in solution, 1:1 Langmuir. How it is done:
(§1) An anti-human Fab capture antibody was immobilised on all four flow cells of a CM5 series S chip (GE Healthcare #BR-1005-30) to an average surface density of 6000 RU following the manufacturer's recommendations (GE Healthcare, human Fab capture Kit, #28958325). IEach mAb² was captured to approximately 150 RU by injecting a 3 μg/ml solution of mAb² diluted in HBS-EP+ buffer (GE Healthcare #BR1006-69) for 60 seconds at 30 μl/min. Then different concentrations of human, cyno or mouse CD137 antigen (unbiotinylated human, cyno or mouse CD137-mFc-Avi or human CD137-Avi-His) in HBS-EP+ buffer were flowed over the chip for 3 min at 60 μl/min and then allowed to dissociate for 10 minutes. After each antigen concentration the chip was regenerated by infecting 10 mM glycine pH 2.1 at a flow rate of 30 μl/min for 30 seconds. Buffer HBS-EP+ was injected before the highest concentration of antigen and after the lowest concentration of antigen for reference subtraction, and one of the concentrations at random was repeated twice. The binding kinetics were fit with a 1:1 Langmuir model to generate equilibrium binding constants (KD) for each sample. Data analysis was performed with BiaEvaluation software version 3.2.
(In general: Surface plasmon resonance follows binding to a sensor surface in real time, without labels.)

In the experiment “mCD137-mFc-Avi” the target is B1. The experiment is described as above. How it is done: as §1
Another experiment concerns the target T3, hCD137-Avi-His (human, UniProt Q07011 24-186, single biotin on the Avi sequence (BirA); unbiotinylated in the SPR of Example 5.6).
T3 construct: also called human CD137-Avi-His; monomeric human CD137
Described as above. How it is done:
as §1

For the next experiment, the target named is T4, cCD137-mFc-Avi (cynomolgus; mouse, one biotin on the Avi sequence of each monomer (BirA); unbiotinylated in the SPR of Example 5.6).
T4 construct: also called cyno CD137-mFc-Avi; dimeric cynomolgus CD137; not shown: mouse IgG2a Fc domain (mIgG2a Fc)
T4 chain: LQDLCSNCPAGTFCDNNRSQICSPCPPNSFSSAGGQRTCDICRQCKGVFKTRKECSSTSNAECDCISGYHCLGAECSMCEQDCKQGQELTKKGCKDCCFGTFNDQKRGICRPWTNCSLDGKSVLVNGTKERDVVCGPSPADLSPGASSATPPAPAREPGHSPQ
The experiment is described as above. How it is done: as §1

The next experiment has as its target T5, human GITR (human, UniProt Q9Y5U5 26-161, limits assumed).
T5 sequence (looked up): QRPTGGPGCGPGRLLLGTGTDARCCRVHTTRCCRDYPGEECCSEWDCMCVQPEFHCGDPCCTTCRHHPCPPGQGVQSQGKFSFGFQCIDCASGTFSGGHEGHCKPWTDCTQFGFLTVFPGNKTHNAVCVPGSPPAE
Description: SPR (Biacore T200), receptor amine-coupled to CM5 chip. How it is done:
(§2) The specificity of the anti-human CD137 Fcabs for human CD137 compared to other related TNFSFR family members was tested. 8 of the Fcabs were tested in mock mAb² (HeID1.3) format and measured by SPR in a Biacore T200 (GE Healthcare) by testing for binding to other human TNFRSF receptors: CD40, OX40 and GITR. Amine coupling (amine coupling kit, GE Healthcare, BR-1000-50) was used to coat human CD40, GITR and OX40 to approximately 1000 RU in Biacore CM5 chips (GE Healthcare, cat no 29149603). […] The chip was regenerated by injection of 10 mM glycine pH 2.5 for 12 s at 30 μl/min. Antibodies specific to the different TNFRSF members were used as positive controls to verify Biacore chip coating. Data was double reference subtracted and analysed using BIAevaluation 3.2 software.

For a further experiment, the target named is human CD40 (human, UniProt P25942 21-193). Described as above. How it is done:
as §2

A further experiment has as its target T6, human OX40 (human, UniProt P43489 29-216, limits assumed).
T6 sequence (looked up): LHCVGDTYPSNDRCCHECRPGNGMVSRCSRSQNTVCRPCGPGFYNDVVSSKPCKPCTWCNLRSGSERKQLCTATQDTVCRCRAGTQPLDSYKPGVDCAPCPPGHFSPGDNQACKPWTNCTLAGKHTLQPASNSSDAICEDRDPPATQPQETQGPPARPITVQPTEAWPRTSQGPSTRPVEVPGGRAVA
Described as above. How it is done: as §2

For experiment [3], the target named is human CD137, full length, on cells (human, UniProt Q07011 24-255). The experiment is described as follows: cell-based or functional assay.
Sequence of human CD137, full length, on cells (Q07011 24-255): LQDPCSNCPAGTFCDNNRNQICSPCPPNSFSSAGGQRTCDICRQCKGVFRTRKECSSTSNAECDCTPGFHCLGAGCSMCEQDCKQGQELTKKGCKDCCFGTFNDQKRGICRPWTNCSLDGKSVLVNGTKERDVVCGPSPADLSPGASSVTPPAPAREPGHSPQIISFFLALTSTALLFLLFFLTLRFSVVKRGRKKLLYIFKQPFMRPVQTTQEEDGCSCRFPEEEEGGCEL
Experiment [4] has as its target T2, hCD137-mFc-Avi. The experiment is described as follows: SPR (Biacore T200), mAb2 captured by anti-human Fab, hCD137-mFc in solution, 1:1 Langmuir. How it is done:
For the hCD137-mFc-Avi antigen the following method was used: an anti-human Fab molecule was immobilised on a CM5 chip to a surface density of between 9,000 and 11,000 response units (RU). The antibodies were diluted to 4 μg/ml in HBS-EP buffer and captured by the anti-Fab molecule with a flow rate of […].
For mCD137-mFc-Avi binding kinetic determination, a different approach was used. […] The analysis of the data was done using the Biacore T200 evaluation software. Curves were subtracted against a blank flow cell and fitted using a 1:1 Langmuir binding model with mass transfer, setting RI to zero as constant and Rₘₐₓ to local.

The target of experiment [5] is mouse CD137, full length, on cells (mouse, UniProt P20334 24-256). Description: cell-based or functional assay.

T2 sequence (Q07011 24-186): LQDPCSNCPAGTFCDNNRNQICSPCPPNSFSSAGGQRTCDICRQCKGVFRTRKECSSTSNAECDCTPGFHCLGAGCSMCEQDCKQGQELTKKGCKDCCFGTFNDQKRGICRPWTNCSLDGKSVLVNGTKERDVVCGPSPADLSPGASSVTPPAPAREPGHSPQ
Sequence of human CD40 (P25942 21-193 limits assumed): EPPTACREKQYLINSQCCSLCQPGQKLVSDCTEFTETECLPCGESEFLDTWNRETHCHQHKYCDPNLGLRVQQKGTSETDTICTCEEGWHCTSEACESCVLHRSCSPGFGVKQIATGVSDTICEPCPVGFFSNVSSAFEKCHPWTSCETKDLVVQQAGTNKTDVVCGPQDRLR
T3 sequence (Q07011 24-186): as the sequence (Q07011 24-186) above

In the case of B1, in [1], the binding result is recorded as “binds”.
As to B2, the Kd (usually the equilibrium constant for the complex coming apart) with hCD137-mFc-Avi [2] came out at 3.2 nM; with mCD137-mFc-Avi, 24 nM; in the experiment with cCD137-mFc-Avi, 0.9 nM; in the experiment with hCD137-mFc-Avi [4] it was 4.4 nM. Also, the “Human monomeric CD137 KD fold difference relative to human dimeric KD” value with hCD137-Avi-His came to 100 fold. For the same molecule, the binding result with human GITR, with human CD40 and in the experiment with human OX40 was “no binding (tested: starting at 1 µM)” each time. Besides, the “IL-2 release, human CD137 DO11.10 T cell activation assay, Protein L: +XL EC50” value in [3] was 0.73 nM. For the same molecule, the koff (in general, the first-order rate constant of dissociation) with hCD137-mFc-Avi [4] was found to be 0.000366 s⁻¹. Moreover, the kon – broadly, the second-order rate constant of association – in the experiment with hCD137-mFc-Avi [4] came out at 83000 M⁻¹ s⁻¹. In experiment [5], the “IL-2 release, mouse CD137 DO11.10 T cell activation assay, Protein L: +XL EC50” value stood at 2.04 nM. Besides, the “IL-2 release, mouse CD137 DO11.10 T cell activation assay, Protein L: +XL Emax” value in experiment [5] amounted to 28100 pg/mL.
